# Results: patent publication US8772452B2, “Calcium-binding photoprotein” (JNC Corporation, priority 2009, dated 2014)
# B1: recombinant clytin-ESNA: Holoprotein (calcium-binding photoprotein) regenerated from recombinant apoclytin-ESNA (SEQ ID NO: 2/6) and coelenterazine (protein)
# chain: VKLRPNFDNPKWVNRHKFMFNFLDINGDGKITLDEIVSKASDDICAKLGATPEQTKRHQDAVEAFFKKIGMDYGKEVEFPAFVDGWKELANYDLKLWSQNKKSLIRDWGDAVFDIFDKDGSGSISLDEWKAYGRISGICPSDEDAEKTFKHCDLDNSGKLDVDEMTRQHLGFWYTLDPTSDGLYGNFVP
# modifications: coelenterazine
# How the values were obtained:
# [1] = Luminescence pattern triggered by addition of calcium (luminescence plate reader Centro LB960); format: biochemical
# Method: The luminescence activity of the recombinant clytin-ESNA of EXAMPLE 4 was measured as follows. After mixing 2-mercaptoethanol (1 μl) and substrate coelenterazine (1 μg/μl dissolved in ethanol) with 30 mM Tris-HCl (pH 7.6) containing 10 mM EDTA, the recombinant apoclytin-ESNA at each purification step was added to the mixture. The reaction was carried out on ice (4° C.) for 2 hours to regenerate recombinant clytin-ESNA. The luminescence reaction was triggered by adding a 50 mM calcium solution (100 μl/well) to 1 μl of this regenerated recombinant clytin-ESNA solution. The luminescence activity was measured for 10 seconds using a luminescence plate reader Centro LB960 (manufactured by Berthold) and expressed in terms of the maximum luminescence intensity (Imax).
# In order to compare the luminescence properties between the recombinant clytin-ESNA (CLI-ESNA) obtained in EXAMPLE 5 and other holoproteins (aequorin (AQ)), clytin-I (CL-I), clytin-II (CL-II)) and obelin (Ob)), the luminescence patterns triggered by the addition of calcium were compared.
# The luminescence patterns of CLI-ESNA, AQ, CL-I, CL-II and Ob were measured as follows. […] The luminescence reaction was initiated by adding 100 μl/well of a 50 mM calcium solution to this reconstitution solution. […]
# [2] = Bioluminescence emission spectrum on addition of CaCl2 (JASCO FP-6500, excitation source off); format: physicochemical; settings: 0.1 ml of 50 mM CaCl2 added to 1 ml of 50 mM Tris-HCl (pH 7.6), 0.02 mg protein
# Method: Bioluminescence emission spectra of the recombinant clytin-ESNA obtained in EXAMPLE 4, 5) were measured in a quartz cell having a 10 mm optical path under the given conditions (band width for emission/excitation: 20 nm, response: 0.5 sec, scan speed: 2000 nm/min) using a fluorescence spectrophotometer (JASCO FP-6500) with the excitation source turned off.
molecule,measurement,setting,value
B1,decay pattern of the luminescence patterns,"[1]; 100 μl/well of 50 mM calcium solution, measured for 10 seconds, as compared to AQ, Cl-I, Ob",rapid decay pattern
same,S/N ratio,"[1]; compared with Cl-I, luminescence triggered by calcium",higher S/N ratio than Cl-I
same,bioluminescence emission maximum wavelength,[2],470 nm
